Here are results for 3 substances from PMC2572630.

For the test, the target named is Flag-tagged mR3-3 c-Myb (chicken) (UniProt P01103). Briefly: protein chromatin immunoprecipitation (PChIP); 293T cells fixed with 1% formaldehyde, lysate sonicated to chromatin fragments of 100-300 bp, anti-Flag M2 agarose, washes up to 500 mM NaCl and 500 mM LiCl, histones detected by western blot. In general terms: In western blotting, separated proteins are transferred to a membrane and probed.
Chain of UniProt P01103 (P01103 other isoform, or with tags, fused parts or gaps): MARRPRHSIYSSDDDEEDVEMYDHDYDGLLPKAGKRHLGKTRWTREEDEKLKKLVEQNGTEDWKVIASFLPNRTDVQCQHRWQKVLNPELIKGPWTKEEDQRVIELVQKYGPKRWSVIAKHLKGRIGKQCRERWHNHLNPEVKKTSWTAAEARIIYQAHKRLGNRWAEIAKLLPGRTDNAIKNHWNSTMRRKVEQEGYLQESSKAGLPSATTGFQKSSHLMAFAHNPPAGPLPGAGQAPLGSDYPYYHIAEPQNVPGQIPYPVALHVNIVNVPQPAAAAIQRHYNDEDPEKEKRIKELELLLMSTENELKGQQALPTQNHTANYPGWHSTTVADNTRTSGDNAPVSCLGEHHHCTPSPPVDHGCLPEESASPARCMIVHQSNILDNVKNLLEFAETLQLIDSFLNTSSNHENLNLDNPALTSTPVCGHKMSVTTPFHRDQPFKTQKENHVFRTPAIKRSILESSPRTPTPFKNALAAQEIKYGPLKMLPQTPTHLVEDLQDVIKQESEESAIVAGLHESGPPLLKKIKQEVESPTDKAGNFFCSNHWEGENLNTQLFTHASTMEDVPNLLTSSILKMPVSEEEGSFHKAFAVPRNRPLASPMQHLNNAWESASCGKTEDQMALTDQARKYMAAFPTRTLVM
In turn, “histone H2A (from UniProt P0C0S8 1-130) (natural protein)” showed a percent decrease in association against wild-type c-Myb of 50%.
As for “histone H3 (from UniProt P68431 1-136) (natural protein)”, the figure is 50%; as for “histone H4 (from UniProt P62805 1-103) (natural protein)”, 50%.
